# Measurements published in the RNAGym collection of RNA variant scans (doi:10.1073/pnas.2313332121).
# Variants at the floor of the assay were thinned out.
# B1: TPR 5TU (parent)
# chain: GGAUCUUCUCGAUCUAACAAAAAAGACAAAUCUGCCACAAAGCUUGAGAGCAUCUUCGGAUGCAGAGGCGGCAGCCUUCGGUGGCGCGAUAGCGCCAACGUUCUCAACUAUGACACGCAAAACGCGUGCUCCGUUGAAUGGAGUUUAUCAUG
# Variants of: B1
# Assay: polymerase ribozyme fitness, log enrichment relative to wild type (log ratio); higher = more active; in vitro selection for triplet polymerase activity
# How it was run: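 Only genotypes with ≥10 input reads and ≥1 read per output were kept after Illumina sequencing of input and output libraries. These libraries were PCR-built, transcribed mutants of each subunit of a heterodimeric triplet polymerase ribozyme, each put through one triplicate in vitro selection round with frozen incubation at −7 °C, gel excision of extended constructs, streptavidin-bead capture and RT-PCR. Fitness is a logarithmic ratio of genotype enrichment to wild-type enrichment, from inverse-variance-weighted replicate averages, with the logarithm in base 2.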
row,Variant,polymerase ribozyme fitness (log ratio)
1,C10G A20G A138G U144A U145A,≤ -4.2
2,U9G C38U C54U C57A A60G,≤ -4.2
3,C10A U31C G46A C69G G80A U82A G86A C99U G100U G141A,≤ -4.2
4,U9G,-2.82
5,U9G A47C C57A A66C C87A A89U A120U A121U C123A C125U U144A,≤ -4.2
6,C10U C27U C35G C87G C96U U148G,≤ -4.2
7,C10G A26U A28C C87A G88U A91C U145C,≤ -4.2
8,C10U A41U G70C G83U C108U U134A A142G,≤ -4.2
9,C10G A91G A97G C108A C118G,≤ -4.2
10,C10U G42C C69A C95G A142G A150G,≤ -4.2
11,C10U C36U C63A C118U,≤ -4.2
12,U9G C27A C96A,≤ -4.2
13,C10A A22G G46A C54U C75G G83U C95A,≤ -4.2
14,U9G A52G C72G C96U C105A A115G U127C G133U,≤ -4.2
15,C10U A19U A23U C57U G58C C75U U78G C95U C105U,≤ -4.2
16,C10U C18U U44G A60G G92A,≤ -4.2
17,C10U U44A U102G A119C A121G A137C G143A,≤ -4.2
18,C10A A12U G80C G94A,≤ -4.2
19,U9G C27G U31G U61G C75G G94A C105U,≤ -4.2
20,C10G A17U A37C G59C C85A,≤ -4.2
21,C10G C35U,-3.4
22,C10A C32G U44G C57U U82G G83A,≤ -4.2
23,C10A C14U C93G C149U,≤ -4.2
24,U9G C35U A52C U61A C87A U101C C125A,≤ -4.2

row,Variant,polymerase ribozyme fitness (log ratio)
1,C10G U109C A137C,≤ -4.2
2,C10U A41G A64G G65C A91C,≤ -4.2
3,C10G C18U C85G G133U A138G,≤ -4.2
4,U9G G48C G62A U82A G84U,≤ -4.2
5,U9G C27G A28C A47U G70A A91C,≤ -4.2
6,C10U C75U G84A U145A,-4.08
7,C10U A22U A29G U53G C75A G83A A106U A150C,≤ -4.2
8,C10A G34U C57U C76U C95G C116G,≤ -4.2
9,C10G G58A G59C G65A C95G C96A A120C,≤ -4.2
10,U9G C36U C76A G94A,≤ -4.2
11,G11A A23U A39U U53G C54U C93U A122U A142G,≤ -4.2
12,C10G C51U G92A G124C,≤ -4.2
13,U9G U139C,≤ -4.2
14,U9G U56A,-4.07
15,C10U A21G A22G A40G C79A C85G A138U,≤ -4.2
16,C10G C27A A39U C75A G92C A97U A121U,≤ -4.2
17,C10G U77A C93U U144G,≤ -4.2
18,C10G G11U C32A C51U C75U C93U C95A,-4.16
19,C10G A29C C54A U55G G88A G92U G124U,≤ -4.2
20,C10U G136A,-2.74
21,C10G A28G U82G G94C C95A G140A,≤ -4.2
22,C10U A47U G59C A60G G62A A110U G141C U145A U148A,≤ -4.2
23,C10G C38U C87A C93G,≤ -4.2
24,C10U G42U A64U C93A A106U C123U G140A,≤ -4.2

row,Variant,polymerase ribozyme fitness (log ratio)
1,U9G U77C C85A C108U A120C G141C,≤ -4.2
2,C10U A47G G94U A147G,≤ -4.2
3,C10U A91U C96A A98U A142G U151C,≤ -4.2
4,U9G C32A U55A C57U C93G A142C U148C,-4.04
5,C10U G70U C87A C118U,≤ -4.2
6,U9G C10G C87G C93U G124C,≤ -4.2
7,C10U C93A,-3.86
8,C10G A28U C54U C85G C116U,≤ -4.2
9,C10A C27G U77C G83A,≤ -4.2
10,C10U C118U,-2.81
11,C10U C32G U145C,-4.16
12,C10G A40U A64U C76G C85A G117U G136A G143A,≤ -4.2
13,U9G A17C A52C G84A C118A,≤ -4.2
14,U9G U15C C87G A113G A142G,≤ -4.2
15,U9G A29G A47C U53A U55G G124C G133C G143A,≤ -4.2
16,C10G U53A G83U A91U A97G C103A,≤ -4.2
17,C10A U56G C57G G59A C79U G83C C99G,≤ -4.2
18,C10G U33G G42C G50U G74C,≤ -4.2
19,C10U C14U A19C U55A G59U A97U C105A A115U G141U U148C,≤ -4.2
20,C10G U31A U44C C57A G59U U61G G92C A107U,≤ -4.2
21,C10U C14G C76U A106G A107G C108U,≤ -4.2
22,G11A A21G A23C C54U G70C C76A G83U,≤ -4.2
23,C10U U55A C72U,-3.95
24,C10U G65A G92A,≤ -4.2

row,Variant,polymerase ribozyme fitness (log ratio)
1,C10G A37G G92C U135G A137G C149G,≤ -4.2
2,C10G A30C G92U A107G U148C A150U,≤ -4.2
3,C10G G34U C85A,≤ -4.2
4,C10U G124C U139G U148C,≤ -4.2
5,U9G C10G A17G A22G A23U G50A A73G,≤ -4.2
6,C10U U13G C35U G50U G59C A60U C85A G94C G141A,≤ -4.2
7,U9G U15G C27G U31A C38A A66C G67A C87U C99G G143C,≤ -4.2
8,C10A A41U C51G C87A,≤ -4.2
9,C10G G81C C87A U127C U144A U148A,≤ -4.2
10,C10A A22U A24G A40C A52C C57U G70A C93U A147C,-4.05
11,C10G C18U G59U G86A C103A,≤ -4.2
12,C10U C38U G80A G94C C125A G143A,≤ -4.2
13,C10G U56A C57U C69U C95A C99U C108U A121U A147G,≤ -4.2
14,C10A C35U A97U,≤ -4.2
15,U9G G46C C76A C85G U90G A121U,≤ -4.2
16,C10A A91G C93U U144G,≤ -4.2
17,C10A G67C C93G C99G A137U U146A,≤ -4.2
18,U9G C69A U102C,≤ -4.2
19,C10U A64C A89C G117C A137C,≤ -4.2
20,C10A C85U,-4.01
21,C10A A16U U33A A121U G141C,-4.19
22,C10U A22C G46A G50A C79G C85U C105U,≤ -4.2
23,C10U A26U C35U C54U A60C C95A C99U C103G A142U,≤ -4.2
24,U9G A29U U53G U55G C93A A137C,≤ -4.2

row,Variant,polymerase ribozyme fitness (log ratio)
1,C10U A19C U45G C72G U90C U135G,≤ -4.2
2,C10U A19G U33A C79U C93U,≤ -4.2
3,U9G G25C A47G C87A G92U C114A,≤ -4.2
4,C10A A21U G84A A97U A113G,≤ -4.2
5,G11A A17C A39C,-3.25
6,C10U G84A U101A A115U A121G G124A,≤ -4.2
7,C10U C85G,-3.57
8,C10U C85A,-3.35
9,C10U A30U A49C C87U A89G C95G U104C C116U A119U G136C,≤ -4.2
10,C10A A24C G71A U77G G94A C99A C125U G140C,≤ -4.2
11,C10A G42C U44A U53A C85A A122C,≤ -4.2
12,C10U U33G C38G U44G A52G C87U C108U C118U,≤ -4.2
13,G11A A17G C43U G94U A122G G141U,≤ -4.2
14,C10G C54U U56A G62U G94A C149U,≤ -4.2
15,U9G G50A G83A G133U,≤ -4.2
16,C10U A52C C87U G88A A122U C123G,≤ -4.2
17,C10G C36G A47U G65U C79G C93U C99G G126C U144C U148C,≤ -4.2
18,C10G C36U G70C C79A C95G A115U,≤ -4.2
19,C10U C14G A39C A91G C95G C99U C105G A137G,≤ -4.2
20,C10G U13A A23U C32A A41G G71C C87U C105U A115U,≤ -4.2
21,C10G U78G C85G U109C G140U,≤ -4.2
22,C10G U15G A23C G62C A97C C125U,≤ -4.2
23,C10A A20G A41G G46A A47C C57U C85G G133U,≤ -4.2
24,C10U C116U A147C,-3.39

row,Variant,polymerase ribozyme fitness (log ratio)
1,C10U C14U A17C U56A U134A A137U U151C,≤ -4.2
2,C10U U109G A142C C149A,≤ -4.2
3,C10A G84U,≤ -4.2
4,C10G G11U U15C G84A G88U,≤ -4.2
5,C10U U15A A23U C32A C51U U55G U111G,≤ -4.2
6,C10U C32A C51G A106G A142C U148A,≤ -4.2
7,U9G G86A A138G,≤ -4.2
8,C10G G94A,-3.44
9,U9G A142G,≤ -4.2
10,C10G A52C C93U,≤ -4.2
11,U9G G88C C99A A119U,≤ -4.2
12,C10A G48C U82G A97U,≤ -4.2
13,U9G U145C,-3.95
14,C10A C85U G133C U134A U146G,≤ -4.2
15,C10G A89C U148C,≤ -4.2
16,C10U G11U A30U C76A A119U A120C A137U,≤ -4.2
17,C10U G74C G88C A110G,≤ -4.2
18,C10A C76G G81A G86U A137U,≤ -4.2
19,C10U G141A,-2.07
20,C10U A12C C54A C85U C108U,≤ -4.2
21,C10U U53A,-2.96
22,U9G C85A C103A C118G U134A,≤ -4.2
23,C10U C14G G34U U56G,≤ -4.2
24,C10U C35U A47C C85A A89C C93U C95U,≤ -4.2

row,Variant,polymerase ribozyme fitness (log ratio)
1,C10U C14G A28U G58C U61C G70C C76G C96U A138G G140U C149G,≤ -4.2
2,U9G A23U G34C C57A C93A,≤ -4.2
3,C10A A12G A22G U56A C85G,≤ -4.2
4,U9G A29C C32G G58C C76A C79A C118G G141C G143A,≤ -4.2
5,C10G A73U G128U,≤ -4.2
6,C10G U13C G70A U111G U148A,≤ -4.2
7,U9G A24U U33C G143C A147C,≤ -4.2
8,C10A C85G C125A,≤ -4.2
9,C10U C35A A40U U44A C51U G59U G68C C87A G143U,≤ -4.2
10,C10G C85U A91C C105A,≤ -4.2
11,C10A A39U G86C U109G U130C,≤ -4.2
12,U9G A20C A29U C35U A47C C54U U56A C96A U130G,≤ -4.2
13,U9G C87G C93U C125A,≤ -4.2
14,C10A A23C G50A C75G C95U C96A C123G,≤ -4.2
15,U9G C32U C38U A49C G58A A60U C87G C95U G133U A142U,≤ -4.2
16,U9G A16U A64U C85G U135C U144G A150U,≤ -4.2
17,U9G C10A C18U A66U G81U C96U,≤ -4.2
18,C10G A19G G34A A52C C54G,≤ -4.2
19,U9C U56A C76A C108G G143U A150G,≤ -4.2
20,C10G U55A C69G C93U C103G C116A,≤ -4.2
21,G11A A19U U61A G84C C85A C103G,≤ -4.2
22,C10U A16C A23U G62C A64G G83C U102G C114U U127G,≤ -4.2
23,C10G G46U G143C U148C,≤ -4.2
